Source: publication PMC2839365

Biological target: ZU5 domain of ankyrin
Experiment: ITC

Sequence of ZU5 domain of ankyrin (P16157 913-1068): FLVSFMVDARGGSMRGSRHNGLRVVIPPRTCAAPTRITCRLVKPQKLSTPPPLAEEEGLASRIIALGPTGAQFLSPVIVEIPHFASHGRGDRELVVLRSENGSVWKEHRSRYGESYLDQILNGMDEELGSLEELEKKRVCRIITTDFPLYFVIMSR

Row | Substance | dH
1 | wild type βI-spectrin 14-15 di-repeat (domain or fragment) | 5.98 kcal/mol
2 | βI14-15 A1867P (domain or fragment) | 0.904 kcal/mol
3 | βI14-15 D1700A (domain or fragment) | 4.42 kcal/mol
4 | βI14-15 D1701A (domain or fragment) | 4.64 kcal/mol
5 | βI14-15 D1781A (domain or fragment) | 5.52 kcal/mol
6 | βI14-15 E1703A (domain or fragment) | 4.82 kcal/mol
7 | βI14-15 E1708A (domain or fragment) | 3.27 kcal/mol
8 | βI14-15 E1710A (domain or fragment) | 3.73 kcal/mol
9 | βI14-15 E1784A (domain or fragment) | 5.21 kcal/mol
10 | βI14-15 T1788A (domain or fragment) | 2.08 kcal/mol
11 | βI14-15 Y1866A (domain or fragment) | 2.52 kcal/mol
